This is an account of results in the nanobody polyreactivity screen of Harvey et al. (2022).

The series can be described thus: yeast display, Sf9 membrane polyspecificity reagent, FACS + sequencing; frameworks hold sequencing errors. In outline: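 Genes from sorted yeast were amplified by colony PCR, read by MiSeq 2 × 250 sequencing and filtered on CDR length. These cells carried a synthetic nanobody library in Saccharomyces cerevisiae BJ5465 and were sorted by FACS into low and high (top ~1%) gates on anti-HA and streptavidin fluorescence. Polyreactivity is labelled according to the gate of origin.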
Consider “QVQLVESGGGLVQAGGSLRLSCAASGRIFLYYAMGWYRQAPGKERELVAAISSGGSTYYADSVKGRFTISRDNAKNTVYLQMNSLKPEDTAVYYCATPSGRWGHYGYWGQGTQVTVSS”, for which the “polyreactivity (PSR sort gate)” value is “low polyreactivity”.
The value for “QVQLVESGGGLVQAGGSLRLSCAASGRIFLYYAMGWYRQAPGKERELVAAITSSGGDTYYADSVKGRFTISRDNANNTVYLQMYSLKPEDTAVYYCAAYSWWNEYDYWGQGTQVTVSS” was “high polyreactivity”; that for “QVQLVESGGGLVQAGGSLRLSCAASGRIFLYYAMGWYRQAPGKERELVAAITSSGGGTYYADSVKGRFTISRDNAKNTVYLQMNSLKPEDTAVYYCAARRRSQWRYYYWGQGTQVTVSS” was “high polyreactivity”.
As for “QVQLVESGGGLVQAGGSLRLSCAASGRIFLYYTMGWYRQATWKERELVAAITRSGGSTYYADSVKGRFTISRDNAKNTVYLQMNSLKPEDTAVYYCNRAYVRYVPMNYWGQGTQVTVSS”, the “polyreactivity (PSR sort gate)” value is recorded as “high polyreactivity”.
Consider “QVQLVESGGGLVQAGGSLRLSCAASGRIFNAYAMGWYRQAPGKERELVASISWSGGSTFYADSVKGRFTISRDNAKNTVYLQMNSLKPEDTAVYYCNADRRSSRHWWSITAYEYWGQGTQVTVSS”, for which the “polyreactivity (PSR sort gate)” value is given as “high polyreactivity”.
Take “QVQLVESGGGLVQAGGSLRLSCAASGRIFNDYAMGWSRQAPGKERELVAVIRRSGVSTYYADSVKGRFTISRDNAKNTVYLQMNSLKPEDTAVYYCAAYGYWGQGTQVTVSS”: the “polyreactivity (PSR sort gate)” value is recorded as “low polyreactivity”.
The value for “QVQLVESGGGLVQAGGSLRLSCAASGRIFNGNAMGWYRQAPGNERELVAAISGSGGSTYYADSVKGRFTISRDNAKNTVYLQMNSLKPEDTAVYYCATKRVVHYNYWGQGTQVTVSS” was “high polyreactivity”.
The value for “QVQLVESGGGLVQAGGSLRLSCAASGRIFNGYAMGWYRQAPGKERELVAAINSSGGSTYYADSVKGRFTISRDNAKNTVFLQMNSLKPEDTAVYYCARVSYHYRTYDYWGQGTQVTVSS” was “high polyreactivity”.
With “QVQLVESGGGLVQAGGSLRLSCAASGRIFNGYAMGWYRQAPGKERELVAAISVSGGSTYYADSVKGRFTISRDNAKNTVYLQMNSLKPEDTAVYYCAARTSSYSFPYAYNYWGQGTQVTVSS”, the “polyreactivity (PSR sort gate)” value is listed as “high polyreactivity”.
The value for “QVQLVESGGGLVQAGGSLRLSCAASGRIFNGYAMGWYRQAPGKERELVARISKRGGRTYYADSVKGRFTISRDNAKNTVYLQMNSLKPEDTAVYYCNAVPRVTRPSAVEEYDYWGQGTQVTVSS” was “high polyreactivity”; that for “QVQLVESGGGLVQAGGSLRLSCAASGRIFNKNAMGWYRQAPGKERELVAAITYSGGSTYYADSVKGRFTISRDNAKNTVYLQMNSLKPEDTAVYYCARDLYYVYSFAPYRYEYWGQGTQVTVSS” was “low polyreactivity”.
For “QVQLVESGGGLVQAGGSLRLSCAASGRIFNLYAMGWYRPAPGKERELVAAISWSGGSTYYADSVKGRFTITRDNAKNTVYLQMNSLKPEDTAVYYCKVVSTYKHTYDFDYWGQGTQVTLSS”, the “polyreactivity (PSR sort gate)” value was “high polyreactivity”.
In the case of “QVQLVESGGGLVQAGGSLRLSCAASGRIFNMYAMGWYRQAPGKERELVAAISVSGTRTYYADSVKGRFTISRDNAKNTVYLQMNSLKPEDTAVYYCAADSYGGVWSEHMYYWGQGTQVTVSS”, the “polyreactivity (PSR sort gate)” value was “low polyreactivity”.
The value for “QVQLVESGGGLVQAGGSLRLSCAASGRIFNPYAMGWYRQAPGKERELVAAISWSGSTTYYADSVKGRFTISRDNAKNTVYLQMNSLKPEDTAVYYCAAEVVFFGWNYDYWGQGTQVTVSS” was “high polyreactivity”; that for “QVQLVESGGGLVQAGGSLRLSCAASGRIFNQSGMGWYRQAPGKERELVAAIRSGDSTNYADSVKGRFTISRDNAKNTVYLQMNSLKPEDTAVYYCAKDSDYPDYVSTKGDYDYWGQGTQVTVSS” was “low polyreactivity”; that for “QVQLVESGGGLVQAGGSLRLSCAASGRIFNQYGMGWYRQAPGKERELVAAIRSGDSTNYADSVKGRFTISRDNAKNTVYLPMNSLKPEDTAVYYCASDRPGDYAGYDYWGQGTQVTVSS” was “low polyreactivity”.
In the case of “QVQLVESGGGLVQAGGSLRLSCAASGRIFNQYGMGWYRQAPGKERELVAAIRSGDSTNYADSVKGRFTISRDNAKNTVYLQMNSLKPEDTAVYYCARDFSPGSSDPKASISFDHWGQGTQVTVSS”, the “polyreactivity (PSR sort gate)” value was “low polyreactivity”.
The value for “QVQLVESGGGLVQAGGSLRLSCAASGRIFNQYGMGWYRQAPGKERELVAAIRSGDSTNYADSVKGRFTISRDNAKNTVYLQRNSLKPEDTAVYYSARDRPGDYAGYDYWGQGTQVTVSS” was “low polyreactivity”; that for “QVQLVESGGGLVQAGGSLRLSCAASGRIFNQYGMGWYSQARGKERELVAAIRSGDSTNYADSVKGRFTISRDNAKNTVYLQMNSLKPEDTAVDYCARDRPGDYAGYDYWGQGTQVTVSS” was “low polyreactivity”.
For “QVQLVESGGGLVQAGGSLRLSCAASGRIFNRNAMGWYRQPPGKERELGAAISRSGSRTYYADSVKWRFTISRDNAKNTVYLQMNSLKPEDTAVYYCAVSGYSPYLYRYGYWGQGTQETVSS” the value was “high polyreactivity”; for “QVQLVESGGGLVQAGGSLRLSCAASGRIFNRYAMGWYRQAPGKERELVAAINSSGGSTYYADSVKGRFTISRDNAKNTVYLQMNSLKPEDTAVYYCARVSYHYRTYDYWGQGTQVTVSS”, “high polyreactivity”; for “QVQLVESGGGLVQAGGSLRLSCAASGRIFNRYTMGWYRPAPGKEREFVAAISSRGGSTYYADSVKGRFTISRDNAKNTVDLQMYSLIPEDTAVYYCNKDYYWPLYAPYDSWGQGTRVTVSS”, “high polyreactivity”.
The value for “QVQLVESGGGLVQAGGSLRLSCAASGRIFNRYVMGWYRQAPGKERELVAAISVRGASTYYADSVKGRFTISRDNAKNTVYLQMNSLKPEDTAVYYCATAGYRLLDYWGEGTQVTVSS” was “high polyreactivity”.
For “QVQLVESGGGLVQAGGSLRLSCAASGRIFNSNAMGWYRQAPGKERELAAAISKRGGSTFYADSVKGRFTISRDNAKNTVYLQMNSLKPEDTAVYYCNARRLSTGFERYDYWGQGTQVTVSS”, the “polyreactivity (PSR sort gate)” value was “high polyreactivity”.
In the case of “QVQLVESGGGLVQAGGSLRLSCAASGRIFNSYAMGWYRQAPGKERELVAAISWSGSSTYYADSVKGRFTISRDNAKNTVYLQMNSLKPEDTAVYYCAAGTRYFDYWGQGTQVTVSS”, the “polyreactivity (PSR sort gate)” value is reported as “high polyreactivity”.
With “QVQLVESGGGLVQAGGSLRLSCAASGRIFNSYAMGWYRQAPGKERELVAAITRGGSTNYADSVKGRFTISRDNAKNTVYLHMNSLKPEDTAVYYCAAVTLFHYRYDYWGQGTQVTVSS”, the “polyreactivity (PSR sort gate)” value is given as “low polyreactivity”.
The value for “QVQLVESGGGLVQAGGSLRLSCAASGRIFNTYAMGWYRQAPGKERELVAAITSSGGSTYYADSVKGRFTISRDNEKNTVYLQLNSLKPEDTAVYYCAKPWYVRGGSSKYVYWGQGTQVTVSS” was “high polyreactivity”; that for “QVQLVESGGGLVQAGGSLRLSCAASGRIFNTYAMGWYRQAPGKERELVAVISSRGGSTYYADSVKGRFTISRDNAKNTVYLQMNSLKPEDTAVYYCAARGRGQPFVRYDYWGQGTQVTVSS” was “high polyreactivity”; that for “QVQLVESGGGLVQAGGSLRLSCAASGRIFNWYAMGWYRQAPGKERELVARISSGDITSYADSVKGRFTISRDNAKNTVYLQMNRLKPEDTAVYYCDARQWFLYDYWGQGTQVTVSS” was “low polyreactivity”.
With “QVQLVESGGGLVQAGGSLRLSCAASGRIFNYYDMGWYRQPPGKERELVAAISWRGTSTRYADSVKGRFTISRDNAKNTVYLQMNSLKPEDTAVYYCADDDYARRFSFKYDYWGQGTQVTVSS”, the “polyreactivity (PSR sort gate)” value is given as “high polyreactivity”.
For “QVQLVESGGGLVQAGGSLRLSCAASGRIFNYYTMGWYRQAPGKEREFVAAISRSGGSTFYADSVKGRFTISRDNAKNTVYLQMNSLKPEDTAVYYCAARSYSRPDGGYVQLDYWGQGTQVTVSS” the value was “high polyreactivity”.
Consider “QVQLVESGGGLVQAGGSLRLSCAASGRIFPANAMGWYRQAPGKERELVAAIDYDGGSTYYADSVKGRFTISRDNAKNTVYLQMNSLKPEDTAVYYCAADFYDYEGSYYDYYWGQGTQVTVSS”, for which the “polyreactivity (PSR sort gate)” value is given as “high polyreactivity”.
The value for “QVQLVESGGGLVQAGGSLRLSCAASGRIFPAYAMGWYRQAPGKERELVASIRRGGITYADSVKGRFTISRDNAKNTVYLLMNSLKPEDTAVYYCNAYVNRATAGRYYSWGQGTQVTVSS” was “low polyreactivity”.
In the case of “QVQLVESGGGLVQAGGSLRLSCAASGRIFPAYAMGWYRQAPWKERELVASIRRGGITYADSVKGRFTISRDNAKNTVYLQMNSLKPEDSAVYYCNADYRGWGYHMYYWGQGTQVTVSS”, the “polyreactivity (PSR sort gate)” value is “low polyreactivity”.
For “QVQLVESGGGLVQAGGSLRLSCAASGRIFPAYTMGWYRQAPGKERELVAAITWSGGSTYYADSVKGRFTISRDNAKNTVYLQMNSLKPEDTAVYYCAADKLYWYYGTEYGYWGQGTQVTVSS” the value was “low polyreactivity”.
Take “QVQLVESGGGLVQAGGSLRLSCAASGRIFPAYVMGWYRQAPGKERELVATIDNGGGTYYADSVKGRFTISRDNAKNTVYLQMNSLKPEDPAVYYCARDRHVRWGLKMDYWGQGTQVTVSS”: the “polyreactivity (PSR sort gate)” value is reported as “low polyreactivity”.
For “QVQLVESGGGLVQAGGSLRLSCAASGRIFPDYDMGWYRQAPGKERELVAAITQRGGSTYADSVKGRFTISRDNAKNTVYLQMNSLKPEDTSVYYCAREYYEGYEYWGQGTQVTVSS”, the “polyreactivity (PSR sort gate)” value is reported as “low polyreactivity”.
For “QVQLVESGGGLVQAGGSLRLSCAASGRIFPFYAMGWYRQAPGKERELVAAISSSGGSTYYADSVKGRFTISRDHAKNTVYFQMNSLKPEDTAVYYCAATRNSDGMGYWGQGTQVTVSS” the value was “low polyreactivity”; for “QVQLVESGGGLVQAGGSLRLSCAASGRIFPFYVMGWYRQAPGKERELVATINWSGGSTYYADSVKGRFTISRDNAKNTVYLQMNSLKPEDNAVYYCNAAPSDDYDYWGQGTQVTVSS”, “low polyreactivity”.
Regarding “QVQLVESGGGLVQAGGSLRLSCAASGRIFPGNAMGWYRQAPGKERELVADITSGGSTNYADSVKGRFTISRDNAKNTVYLQMNSLKPEDTAVYYCAVRQIYQTSDHRLQYDYWGQGTQVTVSS”, the “polyreactivity (PSR sort gate)” value is recorded as “low polyreactivity”.
For “QVQLVESGGGLVQAGGSLRLSCAASGRIFPGYAMGWYRQAPGKERELVAAISERGGSTYYADSVKGRFTISRDNAKNTVYLQMNSLKPEDTAVYYCAAIWRGGYNYWGQGTQVTVSS” the value was “low polyreactivity”.
